The source of these data is patent US20110124006A1, “METHOD FOR SCREENING OF THERAPEUTIC AGENT FOR CANCER” (Hismitsu Pharmaceutical Co., Inc., priority 2008, published 2011).

In assay [1] the test system is SK-N-BE cells, NLF cells, SH-SY5Y cells, SMS-SAN cells. Kind of assay: MTT assay, EGF-induced proliferation of neuroblastoma-derived cells. In kind it is cell-based. Conditions: SK-N-BE, NLF, SH-SY5Y, SMS-SAN cells, 10 ng/ml EGF. The method, then: SK-N-BE cells, NLF cells, SH-SY5Y cells, SMS-SAN cells, which are cell lines derived from neuroblastoma, and SK-N-BE cells into which siRNA against NLRR1 was introduced were cultured in the presence and absence of 10 ng/ml EGF, and the cell proliferation was quantified by the MTT assay over time. FIG. 28 is a graph showing the cell proliferation, showing the change fold ratio of the proliferation of cells in the presence of EGF to the proliferation of cells in the absence of EGF.

Assay [2] relates to MYCN expression. Kind of assay: Immunoblot of MYCN expression in SK-N-BE cells treated with EGF. Format: cell-based. The protocol:
A neuroblastoma cell line SK-N-BE was cultured for 10 hours in media containing EGF at a variety of concentrations, by using an anti-phosphorylated EGFR antibody, an anti-EGFR antibody, an anti-MYCN antibody and an anti-actin antibody, the phosphorylation of an EGF receptor and the expression of MYCN were analyzed by an immunoblot method. FIG. 19 is a photograph showing a result of immunoblot. […] FIG. 20 is a photograph in which SK-N-BE cells were cultured in a medium containing 10 ng/ml EGF for different periods of time and the expression of MYCN was analyzed by an immunoblot method using an anti-MYCN antibody and an anti-actin antibody. […] From the above-mentioned results, it is thought that the following positive feed-back mechanism is present. That is to say, by EGF treatment, an EGFR signal is activated and the expression of MYCN is promoted. Next, by MYCN, transcription of NLRR1 is promoted. Next, the expression of NLRR1 is increased and activated. Next, by NLRR1, an EGFR signal is activated. Next, the expression of MYCN is further promoted.

B1: epidermal growth factor (protein, UniProt P01133 23-1207, looked up)
Pro-epidermal growth factor: PQHWSCPEGTLAGNGNSTCVGPAPFLIFSHGNSIFRIDTEGTNYEQLVVDAGVSVIMDFHYNEKRIYWVDLERQLLQRVFLNGSRQERVCNIEKNVSGMAINWINEEVIWSNQQEGIITVTDMKGNNSHILLSALKYPANVAVDPVERFIFWSSEVAGSLYRADLDGVGVKALLETSEKITAVSLDVLDKRLFWIQYNREGSNSLICSCDYDGGSVHISKHPTQHNLFAMSLFGDRIFYSTWKMKTIWIANKHTGKDMVRINLHSSFVPLGELKVVHPLAQPKAEDDTWEPEQKLCKLRKGNCSSTVCGQDLQSHLCMCAEGYALSRDRKYCEDVNECAFWNHGCTLGCKNTPGSYYCTCPVGFVLLPDGKRCHQLVSCPRNVSECSHDCVLTSEGPLCFCPEGSVLERDGKTCSGCSSPDNGGCSQLCVPLSPVSWECDCFPGYDLQLDEKSCAASGPQPFLLFANSQDIRHMHFDGTDYGTLLSQQMGMVYALDHDPVENKIYFAHTALKWIERANMDGSQRERLIEEGVDVPEGLAVDWIGRRFYWTDRGKSLIGRSDLNGKRSKIITKENISQPRGIAVHPMAKRLFWTDTGINPRIESSSLQGLGRLVIASSDLIWPSGITIDFLTDKLYWCDAKQSVIEMANLDGSKRRRLTQNDVGHPFAVAVFEDYVWFSDWAMPSVMRVNKRTGKDRVRLQGSMLKPSSLVVVHPLAKPGADPCLYQNGGCEHICKKRLGTAWCSCREGFMKASDGKTCLALDGHQLLAGGEVDLKNQVTPLDILSKTRVSEDNITESQHMLVAEIMVSDQDDCAPVGCSMYARCISEGEDATCQCLKGFAGDGKLCSDIDECEMGVPVCPPASSKCINTEGGYVCRCSEGYQGDGIHCLDIDECQLGEHSCGENASCTNTEGGYTCMCAGRLSEPGLICPDSTPPPHLREDDHHYSVRNSDSECPLSHDGYCLHDGVCMYIEALDKYACNCVVGYIGERCQYRDLKWWELRHAGHGQQQKVIVVAVCVVVLVMLLLLSLWGAHYYRTQKLLSKNPKNPYEESSRDVRSRRPADTEDGMSSCPQPWFVVIKEHQDLKNGGQPVAGEDGQAADGSMQPTSWRQEPQLCGMGTEQGCWIPVSSDKGSCPQVMERSFHMPSYGTQTLEGGVEKPHSLLSANPLWQQRALDPPHQMELTQ
modifications: Pro-epidermal growth factor
notes: epidermal growth factor, purchased from Sigma
For the molecule B1, the “proliferation of cells (MTT assay, fold ratio with vs without EGF)” value in assay [1] is recorded as “the proliferation of cells derived from neuroblastoma is promoted”. In addition, the “expression of MYCN (immunoblot), time course” value in assay [2] (10 ng/ml EGF, different periods of time) was “Increased expression of MYCN by EGF over time”. Also, the “expression of MYCN (immunoblot), EGF concentration dependence” value in assay [2] (10 hours, EGF at a variety of concentrations) was “the expression of MYCN is increased depending upon the concentration of EGF”.
